Consider 1 molecule from US20250215412A1 (NOVOZYMES A S, published 2025).

Test in all cases: cell-based or functional assay
In experiment [1] the target is T1, Chryseobacterium sp-62563 deamidase Q172N (Chryseobacterium sp-62563).
T1 sequence: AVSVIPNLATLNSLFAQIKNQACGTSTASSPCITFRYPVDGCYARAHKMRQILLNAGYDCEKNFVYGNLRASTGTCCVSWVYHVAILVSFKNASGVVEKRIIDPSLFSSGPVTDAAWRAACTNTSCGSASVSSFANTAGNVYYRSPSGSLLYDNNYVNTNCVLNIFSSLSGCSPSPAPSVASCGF

Experiment [2] deals with T2, Chryseobacterium sp-62563 deamidase Q172I (Chryseobacterium sp-62563).
T2 sequence: T1 sequence with N63I

Experiment [3] concerns the target T3, Chryseobacterium sp-62563 deamidase Q160R (Chryseobacterium sp-62563).
T3 sequence: T1 sequence with Q51R, N63Q

Experiment [4] concerns the target T4, Chryseobacterium sp-62563 deamidase polypeptide (second polypeptide, deamidase domain), wildtype (Chryseobacterium sp-62563).
T4 sequence: T1 sequence with N63Q

Experiment [5] has as its target T5, Chryseobacterium sp-62563 deamidase Q130K (Chryseobacterium sp-62563).
T5 sequence: T1 sequence with Q21K, N63Q

The target in experiment [6] is T6, Chryseobacterium sp-62563 deamidase Q172E (Chryseobacterium sp-62563).
T6 sequence: T1 sequence with N63E

In experiment [7] the target is T7, Chryseobacterium sp-62563 deamidase C230N (Chryseobacterium sp-62563).
T7 sequence: T1 sequence with N63Q, C121N

Experiment [8] deals with T8, Chryseobacterium sp-62563 deamidase Q126Y (Chryseobacterium sp-62563).
T8 sequence: T1 sequence with Q17Y, N63Q

Experiment [9] concerns the target T9, Chryseobacterium sp-62563 deamidase Q130D (Chryseobacterium sp-62563).
T9 sequence: T1 sequence with Q21D, N63Q

The target of experiment [10] is T10, Chryseobacterium sp-62563 deamidase Q130N (Chryseobacterium sp-62563).
T10 sequence: T1 sequence with Q21N, N63Q

Experiment [11] has as its target T11, Chryseobacterium sp-62563 deamidase Q126D (Chryseobacterium sp-62563).
T11 sequence: T1 sequence with Q17D, N63Q

Experiment [12] addresses T12, Chryseobacterium sp-62563 deamidase Q126K (Chryseobacterium sp-62563).
T12 sequence: T1 sequence with Q17K, N63Q

Changes are numbered by the printed parent chain. Names and notes keep the numbering of the source.

B1: Chryseobacterium sp-62563 propeptide F99A (protein)
chain: NQDPNLVAKESNETAMKDFGKTVPVGIEKEDGKFKISFMVTAQPYEIKDSKENAAYISMIKTAVENETPIHVFLKANTNEIAKVDKATDDDIRYFKSVATKEVKEENRK
As to B1, the Relative activity of maturated deamidase (% initial rate) in experiment [1] was 51; in [2], 31; in experiment [3], 86; in experiment [4] it was 52; in experiment [5], 92; in experiment [6], 64. The Relative activity of maturated deamidase (% initial rate) in experiment [7] was 42; in experiment [8], 98; in [9], greater than 100; in experiment [10], 79; in experiment [11], 99; in [12], greater than 100. Besides, the Leakage activity in [4] was determined as 4%; in experiment [7], 0%; in experiment [8], 3%; in experiment [10], 0%. In addition, the NanoDSF thermal unfolding temperature in experiment [4] was determined as 76.4 ° C.
